This assay concerns the target 重组人CALR融合蛋白 (recombinant human calreticulin fusion protein, residues 18-203, Example 1) (human, UniProt P27797 18-203). The assay can be described thus: SPR, Biacore 3000, curve fitting.

Where a chain is given by its changes, count along the chain named.

Among the data in CN116239684A (WUHAN ABCLONAL CO LTD, dated 2023) are Kd values, retold here.

重组人CALR融合蛋白 (recombinant human calreticulin fusion protein, residues 18-203, Example 1), sequence (P27797 18-203): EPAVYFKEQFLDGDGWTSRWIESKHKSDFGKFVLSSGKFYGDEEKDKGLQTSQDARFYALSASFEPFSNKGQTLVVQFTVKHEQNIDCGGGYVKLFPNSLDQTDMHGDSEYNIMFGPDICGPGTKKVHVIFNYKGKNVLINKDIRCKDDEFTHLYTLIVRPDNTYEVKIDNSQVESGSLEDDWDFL

B1: 兔单克隆抗体2G2 (rabbit monoclonal antibody 2G2 against human calreticulin) (antibody, V domains shown)
VH: QEQLEESGGGLVQPEGSLTLTCTASGFSINNNYWICWVRQAPGKGLEWVGCISIADNSNTYYATWAKGRVTISKTSSTTVTLQMTSLTAADTATYFCARGPAVISFNLWGPGTLVTVSS
VL: AQVLTQTPSSTSAAVGGTVTINCQASESVYGNNRLAWYQQKPGQPPKRLIYDASTLASGVPSRFSGSGSGKQFTLTMSGVQCDDAATYYCIGHFYSGINSISFGGGTEVVVKG
notes: Recombinant rabbit IgG made in 293F cells; also called 2G2抗体; 兔抗人CALR单克隆抗体2G2
Regarding B1, the Kd was found to be 4.88 nM.

B2: 兔单克隆抗体3B3 (rabbit monoclonal antibody 3B3 against human calreticulin) (antibody, V domains shown)
VH: QSLEESGGGLVQPEGSLTLTCTASGFSFSSSYWICWVRQAPGKGLEWIGCISIDDNSNTYYASWAKGRVTISKTSSTTVTLQMTSLTAADTATYFCARGPGIIFYNLWGPGTLVTVSS
VL: B1 VL with G31N, T55K, S65K, S96T, G97S, I101V, S102T
notes: Recombinant rabbit IgG made in 293F cells; also called 3B3抗体; 兔抗人CALR单克隆抗体3B3
As to B2, the Kd worked out at 4.34 nM.
